Source: patent publication US20080044413A1

Molecular target: human EphA2 (human) (UniProt P29317)
Test: cell-based or functional assay

B1: EphA2-BiTE EA2 (VH/VL) × deimmunized anti-CD3 (VH/VL) (bispecific antibody, part only; not given: anti-CD3 scFv, part only)
chain, part: DVKLVESGGGLVKPGGSLKLSCAASGFTFSSYTMSWVRQTPEKRLEWVATISSGGTYTYYPDSVKGRFTISRDNAKNTLYLQMSSLKSEDTAMYYCTREAIFTYWGQGTLVTVSAGGGGSGGGGSGGGGSDIKMTQSPSSMYASLGERVTITCKASQDINNYLSWFQQKPGKSPKTLIYRANRLVDGVPSRFSGSGSGQDYSLTISSLEYEDMGIYYCLKYDEFPYTFGGGTKLEIKGGGGSHHHHHH
B1 was tested, and the EC50 of redirected lysis, 51Cr release, A549 was 0.184 µg/mL, the EC50 of redirected lysis, 51Cr release, A549, second experiment was 0.163 µg/mL and the EC50 of redirected lysis, 51Cr release, MDA MB231 was 0.0559 µg/mL. For the same binder, the EC50 of redirected lysis, 51Cr release, MDA MB231, second experiment was 0.0721 µg/mL.

B2: EphA2-BiTE EA2 (VL/VH) × deimmunized anti-CD3 (VH/VL) (bispecific antibody, part only; not given: anti-CD3 scFv, part only)
chain, part: DIKMTQSPSSMYASLGERVTITCKASQDINNYLSWFQQKPGKSPKTLIYRANRLVDGVPSRFSGSGSGQDYSLTISSLEYEDMGIYYCLKYDEFPYTFGGGTKLEIKGGGGSGGGGSGGGGSDVKLVESGGGLVKPGGSLKLSCAASGFTFSSYTMSWVRQTPEKRLEWVATISSGGTYTYYPDSVKGRFTISRDNAKNTLYLQMSSLKSEDTAMYYCTREAIFTYWGQGTLVTVSAGGGGSHHHHHH
With B2 the EC50 of redirected lysis, 51Cr release, A549, NK-depleted PBMC, E:T 10:1, 18 h was 0.17 µg/mL, the EC50 of redirected lysis, 51Cr release, MDA MB231, NK-depleted PBMC, E:T 10:1, 18 h was 0.0538 µg/mL and the EC50 of redirected lysis, 51Cr release, MDA MB231, second experiment was 0.086 µg/mL.
